According to the supplement of paper PMC12764529:
± gives the half width of the 95% confidence interval.

What was measured:
[1] = folding stability dG unfold (combined trypsin and chymotrypsin); higher = more stable
Procedure, shortened: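 Unfolding free energy was derived, per protease or combined, by relating Bayesian-fitted K50 values from sequencing counts to a sequence-predicted unfolded-state K50 and a shared folded-state K50. The underlying digests exposed cysteine-free mini-proteins under 80 residues, in a PA-tagged cDNA display construct, to trypsin and chymotrypsin at 11 threefold-diluted concentrations and to a no-protease condition. A filter kept only designs with AlphaFold2 dimer inter-PAE above 15.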

[2] = folding stability dG unfold from chymotrypsin proteolysis; higher = more stable
Procedure: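 Folding stability of de novo designed mini-proteins (<80 aa, no Cys; designed by TrROS, TrMRF, ProteinMPNN and the joint model) was measured by cDNA display proteolysis with trypsin and chymotrypsin. Each protease was used at 11 concentrations in a threefold dilution series plus a no-protease condition. K50 was inferred by Bayesian fitting of sequencing counts, and dG unfold was derived against a sequence-predicted unfolded-state K50 (Tsuboyama et al. method). Sequences shown include variable-length N-terminal GS-type padding (SAGGSAGG...) inside a display construct carrying a PA tag. Rows were kept only if the AF2 dimer inter-PAE was >15, to exclude likely homo-oligomers.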

Sequence	folding stability dG unfold [1] [kcal/mol]	folding stability dG unfold [2] [kcal/mol]
SAGGSAGGSAGGNKKKIELHFFFDPGQPAEEAKDFIRGAALENGDTITDVDIHWVPPEDFSAGGSAGGSAGG [r7_703_TrROS]	-0.384 ± 0.3	0.201 ± 0.11
SAGGSAGGSAGGSMSTLSLTIPVGGEPVSVTVQQLYDPTKNTTTTLLPPEAAAVIARAAGSAGGSAGGSAGG [r11_91_JUSTAS]	< -1	-0.449 ± 0.19
SAGGSAGGSSTLSVELPDFTGSAADVLAALRAAFPDPALVLDGVEVRPLGADRPGWRVELAVASAGGSAGGS [r12_348_JUSTAS]	0.499 ± 0.078	0.958 ± 0.091
SAGGSIPAEELAAALAALPELPAAEVEVVVEERPDEVVVDVRFADPEHPRHVALLRRAERLLAEAASAGGSA [r2_3_TrMRF]	-0.305 ± 0.22	0.373 ± 0.3
SAGGSAGGSAGGGSMILNVRTVVEEDFPINDRRKVTVLDPVVLVPAVAFDPSTGKATPVSAGGSAGGSAGGS [r10_815_JUSTAS]	0.298 ± 0.083	0.667 ± 0.085
SAGGSAGGSAGGSHIQFDPEGRWKIRNRDNNNTREFPADDLPKLPPDFDIPKGARIEPYSAGGSAGGSAGGS [r4_91_TrROS]	-0.518 ± 0.19	-0.134 ± 0.25
SAGGSAGGSAGGSLEEKAEAAYKKNPTTVPVELPLPGGVPATLTVTRTSPDSLDITRTLSAGGSAGGSAGGS [r10_395_JUSTAS]	< -1	0.232 ± 0.2
SAGGSAGGSAGGGMDEEETVELDLTTKGTDPAEVEAARAARAEELGLPLADVRVRVSAESAGGSAGGSAGGS [r10_401_JUSTAS]	< -1	-0.252 ± 0.036
SAGGSAGGSAGGSKRIRITIPENYRVRGPNGKQFSWNDIEELKASGFKPIEIEPLPPGASAGGSAGGSAGGS [r4_47_TrROS]	< -1	-1.06 ± 0.4
SAGGSAGGSAGGTVVPEKEARELARKVAEKGEPIEVEIGDPGPKKPRTVLITPEDLEERSAGGSAGGSAGGS [r10_779_JUSTAS]	< -1	-0.219 ± 0.18
SAGGSAARVVEEIPGVGLLIAKPPTSDEPEIVLSLAELEEARRRSGVPPELAALIAANPDLTLELVSAGGSA [r15_359_JUSTAS]	< -1	-0.297 ± 0.43
SAGGTIEEIKEALKKLPEGAVVEVTTENGEKLEFKSLEEIKKATITNENGEKIKITEVKVYPAKKEKSAGGS [r16_680_TrROS_Hall]	< -1	0.569 ± 0.16
SAGGSAGGSAGDNGPLVIEVDISPDALADAVKNNKPLNANVRIYRPDGSPGGVFDLLIPASAGGSAGGSAGG [r11_26_TrMRF]	-0.126 ± 0.12	0.217 ± 0.076
SAGGSAGGSKMKKITIEVPTEEERKALEEAIKKGEPEVEITTKNGKKIKIKKIEIKEIKIEKKSAGGSAGGS [r12_334_TrROS_Hall]	0.758 ± 0.42	1.58 ± 0.14
SAMPITVTVKKTVTLPPPGPEHQKLLDPNGTVRTVTVEETETITVSPEEIEKVKEEAEAKGIEEVTVVDSAG [r14_509_JUSTAS]	0.267 ± 0.15	0.732 ± 0.051
SAGGSAGGSAGGDEIAKQIAEHFREKGLDKNREIEIRNPENGEKITVRYTPEGGDFEVEPSAGGSAGGSAGG [r7_301_TrROS]	< -1	-0.057 ± 0.17
SAGGSAGGSSSRFEAIKKKILDAFPEDVIKEVKKGPGKIYVVGKPEYIKEIKKLTGSKDIIINSAGGSAGGS [r12_748_JUSTAS]	-0.606 ± 0.34	-0.559 ± 0.36
SAGGSAGGLTITLPNGATVTINEDDLEVVEVTFEPAPPAPPVRTETRTVTETRTVTTLAPGEEASAGGSAGG [r6_585_TrROS_Hall]	0.403 ± 0.11	0.938 ± 0.035

Sequence	folding stability dG unfold [1] [kcal/mol]	folding stability dG unfold [2] [kcal/mol]
SAGGSAGGSAGDVEVTEVTDANGNLTLTVKAKPATVTPNETVTVTLTVVNDDGETKTFELSAGGSAGGSAGG [r17_293_TrROS_Hall]	-0.493 ± 0.41	-0.186 ± 0.4
SAGGEIKIVVSAEELLRKEGKLSEEQRKKLEEALEEAKKLAEEGKEVKVEVEVVPPKPELKPEDKEKKSAGG [r13_731_TrROS_Hall]	< -1	0.214 ± 0.086
SAGGSAGGSAGGMPVSVETKLIEKDPVEDVEISLETFPGTDLRVIVTKTKNEVKKTVIPKSAGGSAGGSAGG [r17_370_JUSTAS]	-0.719 ± 0.51	-0.252 ± 0.13
SAGGMESPVKAVDPSTGAERSFTIPREEAEALLAAGETTIEIPYSGGPMTVEITPLPDGTYAITGKAPSAGG [r13_171_JUSTAS]	-0.16 ± 0.14	0.206 ± 0.24
SAGGSAGGSGSMSLSESPTSRTLTLTYPDSVVVTEYDPETGPPVTRFVSREDGVPVVYPAELLSAGGSAGGS [r12_632_JUSTAS]	-0.414 ± 0.09	-0.0818 ± 0.1
SAGGGMPVPEVEVELLEEREVPGGRVTLGRAKTPDAWETLTTEYDPATGRRRTWRETPEGVTPYAEEGSAGG [r13_445_JUSTAS]	< -1	-0.567 ± 0.65
SAGGSAGGSAGMESKVVTLDVPLAPDETAEAVAARLRAADPAAVLLGYDPAAGRVTVRVASAGGSAGGSAGG [r11_465_JUSTAS]	-0.332 ± 0.087	0.411 ± 0.078
SDLQWEFPVKKPKDQAEQAVEKAKKEFPGFKEVDDIDVERNPDNYRIKMRIRDDKMPPEVADKLRKALQDSA [r9_195_TrROS]	< -1	-0.454 ± 0.46
SAKKVKIKVVEIEKKEDYVLIKIKLEKNVKKGEKVKIIIKNKNGEKKEITIKNGYIYIKMKKKDIEIKISAG [r14_350_TrROS_Hall]	3.93 ± 0.85	4.1 ± 0.29
SAGGSDLSSASFSSSPSTLPDGRSLTTYPAVTLPDGTVATLTVETDPATGAPTVTLTLGDTDIVLATSAGGS [r16_766_JUSTAS]	-0.474 ± 0.25	0.0331 ± 0.32
SAGGSAGGSAGGGKVTVYTDPKGGVVITTTETPDSITATVVDPSGKTTTVTVPPGAPLLSAGGSAGGSAGGS [r10_976_JUSTAS]	-0.183 ± 0.38	0.243 ± 0.18
SAGGPNMRTVTIEIPPENLKKDPDGEPYSAQDIAKHIAKHLPPDNVEIEIDKIDPDNGWFKVTIIVPSAGGS [r16_284_TrROS]	-0.514 ± 0.44	-0.0083 ± 0.2
KDFGITFKSPETIEEIAKKLGPNVVPTDIKKDPKGYVYAKIPTPDGKETDIVIPADKYSYEEAVKFAKEAES [r1_279_TrMRF]	-0.232 ± 0.13	0.228 ± 0.16
SAGGSAGGSAGGSFTLTTPGRTETVPAGSEVYFGNGIKLHPDLPLADIPPELLTPIGTRPSAGGSAGGSAGG [r17_511_TrMRF]	-0.229 ± 0.24	0.48 ± 0.27
SAGGMPLSTESFVQESSGDGTPFTTTKTTYRDVNGNPLVTPVSTVDPVAGTTTTTVTVDGTPVTTTTPSAGG [r13_948_JUSTAS]	-0.701 ± 0.17	-0.386 ± 0.2
SAGGSAGGSAGGMFYIKIPNGKQFPFKSKEEFKDQLRERNGRPMKIKDIEIQPLDPNQFSAGGSAGGSAGGS [r10_62_TrROS]	-0.0888 ± 0.32	0.586 ± 0.26
SAGGSAGGSAGKLRFRRVGLVLELNEDGSLSLSPIEEEVEVEVPEPLPVGLGLGGKPYLLSAGGSAGGSAGG [r17_418_TrMRF]	-0.0408 ± 0.22	0.325 ± 0.27
SAGGSAGGSAGGHPVLLTVPRRYTYLLPGTAPRTVTVPVPVVVEVDDPEVALRLARELEGSAGGSAGGSAGG [r7_21_TrMRF]	< -1	-0.35 ± 0.73
